The values that follow come from paper PMC12365614, “Bipartite chromatin recognition by Hop1 from two diverged Holozoa”.

For series [1], the system named is S. mansoni Hop1 CBR WT (Schistosoma mansoni). As to the kind of experiment: fluorescence polarization. The following applies: FP: 20 mM Tris-HCl pH 8, 100 mM Na glutamate, 5 mM MgCl2, 3% glycerol, 0.5 mM BME, 50 nM DNA, 4 C 30 min; EMSA: 20 mM Hepes pH 7, 100 mM NaCl, 100 uM ZnCl2, 10%. In general terms: In fluorescence polarisation assays a small probe gives low polarisation when free and higher when bound to something large.

In series [2] the target is T1, P. miniata Hop1 CBR R477A (Patiria miniata, UniProt A0A913ZKG6 352-499, R477A).
T1 sequence: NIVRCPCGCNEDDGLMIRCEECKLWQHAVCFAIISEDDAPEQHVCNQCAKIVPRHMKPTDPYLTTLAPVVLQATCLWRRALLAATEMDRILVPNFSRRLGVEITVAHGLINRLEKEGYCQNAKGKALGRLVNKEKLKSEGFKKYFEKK
As to the kind of experiment: fluorescence polarization; FP: 20 mM Tris-HCl pH 8, 100 mM Na glutamate, 5 mM MgCl2, 3% glycerol, 0.5 mM BME, 50 nM DNA, 4 C 30 min; EMSA: 20 mM Hepes pH 7, 100 mM NaCl, 100 uM ZnCl2, 10% glycerol, 2 mM BME, 4 C 60 min. The following applies: protein: recombinant; tags: N-terminal His6-GST (uncleaved); label: 5' 6-FAM on strand 1; blunt.

Series [3] concerns the target T2, P. miniata Hop1 CBR WT (GST) (Patiria miniata, UniProt A0A913ZKG6 352-499).
T2 sequence: T1 sequence with A126R
The series is described as above. The conditions noted are these: protein: recombinant; tags: N-terminal His6-GST (uncleaved); label: 5' 6-FAM on strand 1; blunt.

Series [4] has as its target T3, P. miniata Hop1 CBR R463A (Patiria miniata, UniProt A0A913ZKG6 352-499, R463A).
T3 sequence: T1 sequence with R112A, A126R
Described as above. The conditions noted are these: protein: recombinant; tags: N-terminal His6-GST (uncleaved); label: 5' 6-FAM on strand 1; blunt.

Positions count from the first letter of the chain named.

One may read the Kd as the constant that tells how readily two partners part at equilibrium. Turning to “CTTATATCTGAATAGTCAGT (double strand) [20-bp FAM duplex]”, the Kd in series [1] turned out to be 16 µM.

B1: 20-bp FAM duplex (dsDNA)
DNA 1: CTTATATCTGAATAGTCAGT
DNA 2: ACTGACTATTCAGATATAAG
As to B1, the binding result in series [2] and in series [4] was “no binding” each time. Further, the Kd in series [3] is 16 µM.
